“Also recorded” adds a separate entry of the source. Where no end group is shown, it is not given here.
Columns and labels:
[1] = target: T1, CypA (Homo sapiens, UniProt P62937); experiment: 15N TROSY CPMG-RD of ligand-saturated CypA; type: biochemical
[2] = target: T1, CypA; details: percent weaker than GSFGPDLRAGD; cited from earlier work
[3] = target: T1, CypA; details: cited from earlier work
[4] = 2H,15N CypA, saturating TA-peptide (6 mM), 10 °C

T1 sequence (P62937 whole entry): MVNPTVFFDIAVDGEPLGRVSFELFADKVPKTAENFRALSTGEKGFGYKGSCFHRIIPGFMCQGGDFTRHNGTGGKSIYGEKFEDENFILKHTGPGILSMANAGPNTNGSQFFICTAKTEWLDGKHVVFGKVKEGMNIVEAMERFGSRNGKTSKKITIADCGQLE

| Substance | exchange throughout most of the active site (CsA) ([1]; 2H,15N CypA (0.5 mM), CsA 0.7 mM, 10 °C) | binding relative to the standard GSFGPDLRAGD peptide (weaker) [2] | chemical exchange rate throughout most of the active site [1, 4] | rate of motions, loop residues ~65–78 and ~108–110 [1, 4] | active site dynamics as compared to CypA:peptide complex ([1]; 2H,15N CypA, saturating TA-peptide, much of the active site) | isomerization by CypA [3] |
| --- | --- | --- | --- | --- | --- | --- |
| cyclosporine A [CsA, reference compound] | quenched by CsA throughout most of the active site; also recorded: completely quenched | – | – | – | – | – |
| TA-peptide: substrate for which the G-P peptide bond in the peptide is replaced by a thioamide bond (GSFGPDLRAGD; also: G-P peptide bond replaced by thioamide bond) | – | ~ 50% | ~ 300 s^−1 | ~ 2000 s^−1 | slowed dramatically | not isomerized by CypA |
